Data: US20260193365A1 (GRANITE BIO, published 2026)
Where a chain is given by its changes, count along the chain named. Blank lines part the entries; values can stand above or below the binder they belong to.

Assays:
[1] = biological target: T1, Marmoset monkey (Callithrix jacchus) CCR2 (Marmoset monkey (Callithrix jacchus), UniProt O18793 1-360); experiment: cell binding, primary marmoset monocytes (marmoset blood)
T1 construct: On primary marmoset monocytes (marmoset blood/PBMC); they may hold print errors; also called marmoset CCR2; marmoset CCR2b
T1 chain: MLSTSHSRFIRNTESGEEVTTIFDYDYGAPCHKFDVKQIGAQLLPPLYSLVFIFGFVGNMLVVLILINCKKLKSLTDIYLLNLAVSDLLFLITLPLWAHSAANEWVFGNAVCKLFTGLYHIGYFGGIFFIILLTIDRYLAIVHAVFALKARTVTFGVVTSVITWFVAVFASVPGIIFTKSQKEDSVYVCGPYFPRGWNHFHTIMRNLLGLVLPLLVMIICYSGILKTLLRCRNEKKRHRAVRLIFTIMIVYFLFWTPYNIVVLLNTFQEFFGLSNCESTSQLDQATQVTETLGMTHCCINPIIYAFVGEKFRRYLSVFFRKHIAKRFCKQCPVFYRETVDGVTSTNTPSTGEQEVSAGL

[2] = biological target: T2, human CCR2 (human, UniProt O18793 1-360 (rhesus entry)); experiment: cell binding, human PBMCs
T2 construct: On primary human monocytes/PBMC and on human-CCR2 transfected CHO cells; also called C-C Motif Chemokine Receptor 2; CD192
T2 chain: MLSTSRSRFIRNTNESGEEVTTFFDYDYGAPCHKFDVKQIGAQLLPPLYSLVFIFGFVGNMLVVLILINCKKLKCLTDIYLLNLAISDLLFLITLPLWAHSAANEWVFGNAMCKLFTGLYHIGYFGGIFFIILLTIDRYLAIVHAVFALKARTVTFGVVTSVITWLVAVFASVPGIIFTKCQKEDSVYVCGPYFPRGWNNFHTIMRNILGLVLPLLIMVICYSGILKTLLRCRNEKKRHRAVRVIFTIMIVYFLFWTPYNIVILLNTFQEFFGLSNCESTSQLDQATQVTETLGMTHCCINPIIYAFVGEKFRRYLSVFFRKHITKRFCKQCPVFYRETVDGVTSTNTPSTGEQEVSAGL

[3] = biological target: T1, Marmoset monkey (Callithrix jacchus) …; experiment: cell binding, primary marmoset monocytes
[4] = biological target: T2, human CCR2; experiment: cell binding, primary human monocytes
[5] = biological target: T2, human CCR2; experiment: cell binding, human monocytes

binding result [1]: no binding | binding result [2]: binds
B1: DOC3-RHLXRKA (antibody, human IgG1, kappa, V domains shown)
VH: QVQLQESDPGLVKPSETLSLTCTVSGFSISRYDLSWIRQPPGKGLEWIGVIWTGGGTNYNSAFMSRLTISKDTSKNQVSLKLSSVTAADTAVYYCARENYYNRRGYFDVWGQGTMVTVSS
VL: EIVLTQSPATLSLSPGERATLSCSASSSVSYMHWFQQKPGQAPRLLIYLTSNLASGIPARFSGSGSGTDFTLTISSLEPEDFAVYYCQQRSGSPPTFGPGTKLDIKR

binding result [3]: no binding | binding result [4]: binds
B2: DOC3-RH09XRKA (antibody, human IgG1, kappa, V domains shown)
VH: EVQLVESGGGLVQPGGSLRLSCAVSGFSLTRYDLSWVRQAPGKGLEWLGVIWTGGGTNYNSAFMSRFSISKDNSKNTVFLQMNSLRAEDTAVYYCARENYYNRRGYFDVWGQGTTVTVSS
VL: B1 VL

binding result [1]: no binding
B3: DOC3-RH03XRKA (antibody, human IgG1, kappa, V domains shown)
VH: B2 VH with F67L, S68T, K71R, V78L, F79Y, A96V
VL: B1 VL

binding result [3]: no binding | binding result [4]: binds
B4: DOC3-RH09XRKC (antibody, human IgG1, kappa, V domains shown)
VH: B2 VH
VL: B1 VL with E1Q, I57V

binding result [5]: binds
B5: DOC3 chim. (antibody, human IgG1, kappa, V domains shown)
VH: QVQLKESGPGLVAPSQSLSITCTVSGFSLTRYDLSWIRQPPGKGLQWLGVIWTGGGTNYNSAFMSRLSIRKDNSKSQVFLKMNSLQTDDTAIYYCVRENYYNRRGYFDVWGAGTTVTVSS
VL: QIVLTQSPAIMSTSPGEKVTITCSASSSVSYMHWFQQKPGTSPKLWIYLTSNLASGVPARFSGSGSGTSYSLTINRMEAEDAATYYCQQRSGSPPTFGTGTKLELRR

binding result [3]: no binding | binding result [4]: binds
B6: DOC2-RHBXRKB (antibody, human IgG1, kappa, V domains shown)
VH: EVQLVESGGGVVQPGRSLRLSCAASGFTLSNYAMSWVRQAPGKGLEWVAEVSSSGIYIYYSDTVTGRFSISRDNSKNTLYLQMNSLRAEDTAVYYCARDRYAYAMDYWGQGTLVIVSS
VL: DIVMTQSPDSLAVSLGERATINCKSSQSLLNSYNQKNSLAWYQQKPGQPPKLLVYFASTRESGVPDRFSGSGSGTDFTLTISSLQAEDVAVYFCQQHYSNPRTFGGGTKLEIKR
notes: The number agrees with the antibody's name and was used

binding result [3]: no binding | binding result [4]: binds
B7: DOC2-RHAXRKB (antibody, human IgG1, kappa, V domains shown)
VH: B6 VH with S69T, I115T
VL: B6 VL

binding result [4]: binds
B8: DOC2-RHAXRKA (antibody, human IgG1, kappa, V domains shown)
VH: B6 VH with S69T, I115T
VL: B6 VL with V54I, F93Y
notes: also called DOC2-reshaped

binding result [3]: no binding | binding result [4]: binds
B9: DOC2-RHBXRKA (antibody, human IgG1, kappa, V domains shown)
VH: B6 VH
VL: B6 VL with V54I, F93Y

binding result [3]: no binding | binding result [4]: binds
B10: DOC2-RHBXRKC (antibody, human IgG1, kappa, V domains shown)
VH: B6 VH
VL: B6 VL with S69I, D76Y

binding result [5]: binds
B11: DOC2 chim. (antibody, human IgG1, kappa, V domains shown)
VH: EVQLVESGGGLVKPGGSLKLSCVASGFTLSNYAMSWVRQSPEKRLEWVAEVSSSGIYIYYSDTVTGRFSISRDNAKNTLYLEMSSLRSEDTAIYYCARDRYAYAMDYWGHGTSVIVSS
VL: DIVMTQSPSSLAISVGQRVTLSCKSSQSLLNSYNQKNSLAWYQQKPGQSPKLLVYFASTRESGVPDRFIGSGSGTYFTLTITSVQAGDLADYFCQQHYSNPRTFGGGTRLEIKR

binding result [3]: no binding
B12: DOC2-ChXRKA (antibody, human IgG1, kappa, V domains shown)
VH: B11 VH
VL: B6 VL with V54I, F93Y
